In assay [1] the target is T1, human GPRC5D (hGPRC5D) on cells (human, UniProt Q9NZD1 1-345).
T1 construct: whole, on cells; also called HEK293-hGPRC5D; CHOS-hGPRC5D
The experiment in a line: flow cytometry, MM.1R cells naturally expressing GPRC5D.

Assay [2] concerns the target T1, human GPRC5D (hGPRC5D) on cells. The experiment in a line: flow cytometry, RPMI-8226 cells naturally expressing GPRC5D. A general note: Flow cytometry measures light scatter and fluorescence of single cells or particles in a stream.
The target is the same in assay [3]. The experiment in a line: flow cytometry, NCI-H929 cells naturally expressing GPRC5D.

The results in this text go back to EP4640708A1 (Chimagen Biosciences, Ltd, dated 2025).

T1 sequence (Q9NZD1 whole entry): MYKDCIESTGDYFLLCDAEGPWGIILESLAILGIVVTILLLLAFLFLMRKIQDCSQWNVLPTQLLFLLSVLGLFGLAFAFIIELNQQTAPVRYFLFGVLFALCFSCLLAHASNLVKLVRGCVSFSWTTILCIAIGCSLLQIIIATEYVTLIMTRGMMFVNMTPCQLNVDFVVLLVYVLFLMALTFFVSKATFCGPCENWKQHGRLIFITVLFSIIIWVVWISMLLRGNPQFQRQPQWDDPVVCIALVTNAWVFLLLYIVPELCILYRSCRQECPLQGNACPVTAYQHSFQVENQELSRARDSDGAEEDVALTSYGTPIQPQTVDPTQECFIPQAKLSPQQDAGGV

B1: GC5B596 (antibody, V domains shown)
VH: QVQLVQSGAEVKKPGASVKVSCKASGYSFTGYTMNWVRQAPGQGLEWMGLINPYNSDTNYAQKLQGRVTMTTDTSTSTAYMELRSLRSDDTAVYYCARVALRVALDYWGQGTLVTVSS
VL: DIQMTQSPSSLSASVGDRVTITCKASQNVATHVGWYQQKPGKAPKRLIYSASYRYSGVPSRFSGSGSGTEFTLTISNLQPEDFATYYCQQYNRYPYTFGQGTKLEIKR
As for B1, the values for the EC50 in assay [1], in assay [2] and in assay [3] were 7.2 µg/mL, 14.3 µg/mL and 9.52 µg/mL, respectively.

What is called EC50 is the concentration that produces a half-maximal response.
